Assay results: article PMC8322407 (Communications Biology, 2021)
Values belong to the binder of their own block, whether it stands above or below them.

Columns and labels:
[1] = biological target: T1, Human Arginase 1 (hArg1), trimeric (human, UniProt P05089); assay: SPR; Antibody captured on an anti-mouse IgG or anti-human Fc surface (CM5 chip, Biacore T200 or 4000); human ARG1 injected, twofold dilutions from 100 nM; 10 mM HEPES, 150 mM NaCl, 0.05% P20, 3 mM EDTA, pH 7.4; 25 °C; 1:1 binding model; details: both partners purified
T1 construct: Human arginase 1, full-length, untagged; trimeric metalloenzyme, each monomer ~35 kDa; buffers contained MnCl2 (the SPR buffer contained 3 mM EDTA); also called trimeric hArg1; human Arg1; source: E. coli BL21 (DE3), purified (heat treatment, HiTrap-SP, Superdex 200)

[2] = biological target: T2, Monomeric hArg1 (Arg308 mutated to alanine) (Homo sapiens (Human)., UniProt P05089, Arg308 to an alanine residue); assay: as above; details: both partners purified
T2 construct: Human arginase 1 with Arg308 at the monomer interface mutated to alanine, which gives a monomer; also called monomeric human ARG1

[3] = biological target: the molecule itself; assay: cryo-EM structure; hArg1 and full-length mAb mixed at 3:1 molar ratio in 25 mM HEPES pH 7.4, 150 mM NaCl, 1.0 mM MnCl2, incubated 30 min; diluted to ~75 uM monomeric arginase, DDM added to the CMC
[4] = biological target: T1, Human Arginase 1 (hArg1), trimeric; assay: as above; details: both partners purified
mouse Arg1 = biological target: T3, mouse Arg1 (Mus musculus (Mouse)., UniProt Q61176); assay: enzyme inhibition kinetics; Thioarginine to thioornithine assay; 1 nM human or mouse arginase incubated 30 min at room temperature with fixed antibody concentrations, variable thioarginine; 50 mM Tris pH 7.5, 50 mM NaCl, 1 mM Mn chloride, 0.05% BSA; competitive inhibition model; details: both partners purified
T3 construct: Mouse arginase 1; construct not described; also called mouse arginase

[5] = biological target: T1, Human Arginase 1 (hArg1), trimeric; assay: as above; details: both partners purified

T3 sequence (Q61176 whole entry): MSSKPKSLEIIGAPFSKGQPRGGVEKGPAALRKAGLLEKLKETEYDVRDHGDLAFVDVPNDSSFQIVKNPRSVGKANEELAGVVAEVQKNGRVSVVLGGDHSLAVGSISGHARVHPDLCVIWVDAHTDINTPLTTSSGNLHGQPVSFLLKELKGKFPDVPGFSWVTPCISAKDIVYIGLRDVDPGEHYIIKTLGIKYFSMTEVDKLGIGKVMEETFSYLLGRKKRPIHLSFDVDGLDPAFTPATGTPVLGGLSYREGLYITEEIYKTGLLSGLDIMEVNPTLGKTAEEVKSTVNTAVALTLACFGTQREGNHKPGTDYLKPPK

B2: Human Arginase 1 (hArg1), trimeric (enzyme, UniProt P05089 1-322, looked up)
chain: MSAKSRTIGIIGAPFSKGQPRGGVEEGPTVLRKAGLLEKLKEQECDVKDYGDLPFADIPNDSPFQIVKNPRSVGKASEQLAGKVAEVKKNGRISLVLGGDHSLAIGSISGHARVHPDLGVIWVDAHTDINTPLTTTSGNLHGQPVSFLLKELKGKIPDVPGFSWVTPCISAKDIVYIGLRDVDPGEHYILKTLGIKYFSMTEVDRLGIGKVMEETLSYLLGRKKRPIHLSFDVDGLDPSFTPATGTPVVGGLTYREGLYITEEIYKTGLLSGLDIMEVNPSLGKTPEEVTRTVNTAVAITLACFGLAREGNHKPIDYLNPPK
notes: Human arginase 1, full-length, untagged; trimeric metalloenzyme, each monomer ~35 kDa; buffers contained MnCl2 (the SPR buffer contained 3 mM EDTA); also called trimeric hArg1; human Arg1; source: E. coli BL21 (DE3), purified (heat treatment, HiTrap-SP, Superdex 200)
stoichiometry N [3]: 3

B3: mAb5 (antibody, V domains shown)
VH: EVQLVESGGGVVRPGGSLRLSCAASGFTFDDYGMTWVRQAPGKGLEWVSGINWNGGSTGYADSVKGRFTISRDNAKNSLYLQMNSLRAEDTALYHCARDRRRGSYGSDAFDIWGQGTMVTVSS
VL: DIQMTQSPSSLSASVGDRVTITCRASQGISNYLAWYQQKPGKVPQLLISAASTLQSGVPSRFSGSGSGTDFTLTISSLQPEDVATYYCQKYNSAPRTFGQGTKVEIK
notes: Human heavy chain variable domain from a transgenic (Trianni) mouse immunization; heavy chain of the Fab in PDB 7LEY; Human light chain variable domain from a transgenic (Trianni) mouse immunization; light chain of the Fab in PDB 7LEY; Mouse kappa light chain constant region (mouse IgG1 D265A/kappa backbone); Full-length mAb, human variable regions on a mouse IgG1 D265A/kappa backbone; source: …
binding result [4]: binds
Ki (mouse Arg1): 25 ± 1.7 nM

B4: mAb1 (antibody, V domains shown)
VH: QVQLVQSGAEVKKPGASVKVSCKASGYTFTNYGISWVRQAPGQGLEWMGWISAYNGNTNYAQKLQGRVTMTTDTSTSTAYMELRSLRSDDTAVYYCAREGAYGYRSPYHNWFDPWGQGTLVTVSS
VL: EIVMTQSPATLSLSPGERATLSCRASQSVSSYLAWYQQKPGQAPRLLIYDASNRATGIPARFSGSGSGTDFTLTISSLEPEDFAVYYCQQHSLLPRTFGGGTKVEIK
notes: Human heavy chain variable domain from yeast display; heavy chain of the Fab in PDB 7LEX and 7LEZ; Mouse IgG2a heavy chain constant region (backbone); Human light chain variable domain from yeast display; light chain of the Fab in PDB 7LEX and 7LEZ; Mouse kappa light chain constant region (mouse IgG2a/kappa backbone); Full-length mAb, human variable regions on a mouse IgG2a/kappa backbone; The Fc …
Ki [5]: 3.3 ± 0.3 nM

Other lines, results leading:

Kd [1]: 0.56 nM
Kd [2]: 20 nM
B1: mAb4 (antibody, V domains shown)
VH: EVQLVQSGAEVKKPGASVKVSCKASGYTFTDYYMNWVRQAPGQGLEWIGVISPYNGGTTYNQKFKGKATLTVDKSTSTAYMELSSLRSEDTAVYYCVYDLYYFDYWGQGTLVTVSS
VL: EIVLTQSPATLSLSPGERATLSCRASQRISNDLHWYQQKPGQAPRLLIKYASQSISGIPSRFSGSGSGTDFTLTISSLEPEDFAVYYCQQSNSWPRTFGGGTKLEIK

Ki [5]: 5.3 ± 0.8 nM
B5: mAb2 (antibody, V domains shown)
VH: B4 VH
VL: B4 VL
notes: Human heavy chain variable domain, identical to that of m3 (mAb1); heavy chain of the Fab in PDB 7LF0; Human light chain variable domain, identical to that of m3 (mAb1); light chain of the Fab in PDB 7LF0; Mouse kappa light chain constant region (mouse IgG1 D265A/kappa backbone); Full-length mAb; differs from mAb1 only in the constant domains; also called mAbs1-3 (member); source: ExpiCHO-S, …
